The record followed here is the supplement of paper PMC7125110.

To fix the notation:
B1: glmS ribozyme (parent)
chain: AUAAAAGCGCCAGAACUACAGAAAUGUAGUUGACGAGGAGGAGGUUUAUCGAAUUUUCGGCGGAUGCCUCCAAA

Common to all, as to conditions: with glucosamine-6-phosphate
In data set [1] the parent is B1. The data set can be described thus: self-cleavage kobs at 40 uM GlcN6P; higher = faster cleavage; RNA array. The essentials:
(§1)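 Glucosamine-6-phosphate (40 μM to 10 mM) in HEPES/KCl/Mg(OAc)2 buffer was flowed over sequenced MiSeq chips, and tiles were imaged over ~14 h. Barcoded ribozyme variants there had been transcribed in situ by E. coli RNA polymerase and were tracked through a hybridised Cy3 probe at 37 °C. One- or two-exponential decay fits to per-tile medians, normalised to baseline and to non-cleaving reference variants, gave kobs. kcat and KM came from weighted Michaelis–Menten fits across concentrations.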

In data set [2] the parent is B1. Briefly: self-cleavage kobs at 10000 uM GlcN6P; higher = faster cleavage; RNA array. Summed up: as §1
The variants in data set [3] derive from B1. The data set can be described thus: self-cleavage kobs at 160 uM GlcN6P; higher = faster cleavage; RNA array. The essentials:
as §1

The variants in data set [4] derive from B1. The data set can be described thus: self-cleavage kobs at 640 uM GlcN6P; higher = faster cleavage; RNA array. The essentials:
as §1

Data set [5] covers variants of B1. The data set can be described thus: self-cleavage kobs at 2500 uM GlcN6P; higher = faster cleavage; RNA array. Summed up: as §1

± gives the standard error. Variants at the floor of the assay were thinned out.

AUAAAAGCGCCAGCACUACAGAAAUGUAGUUGACGAGGAGGAGGUUUAUCGAAUUUUCGGCGGAUGUCUUCAAA: in data set [1], the “self-cleavage kobs at 40 uM GlcN6P” value was below 1e-05 s⁻¹. Also, the “self-cleavage kobs at 10000 uM GlcN6P” value in data set [2] stood at 6.08e-05 ± 1.4e-05 s⁻¹.

AUAAAAGCGCGAGAACUACAGAAAUGUAGUUGACGAGGAGGACGUUUAUCGAAUUUUCGGCGGAUGCCUCCAAA: the “self-cleavage kobs at 40 uM GlcN6P” value in data set [1] is below 1e-05 s⁻¹. Further, the “self-cleavage kobs at 160 uM GlcN6P” value in data set [3] was below 1e-05 s⁻¹. Also, the “self-cleavage kobs at 640 uM GlcN6P” value in data set [4] was below 1e-05 s⁻¹. Also, in data set [2], the “self-cleavage kobs at 10000 uM GlcN6P” value was below 1e-05 s⁻¹.

Take AUAAAAGCGCCAGAACUACAGAAAUGUAGUUCACGAGGAGGAGGUUUAUCGAAUUUUCGGCAGAUGCCUCCAAA: the “self-cleavage kobs at 40 uM GlcN6P” value in data set [1] was below 1e-05 s⁻¹. In data set [3], the “self-cleavage kobs at 160 uM GlcN6P” value is below 1e-05 s⁻¹. Moreover, in data set [4], the “self-cleavage kobs at 640 uM GlcN6P” value is below 1e-05 s⁻¹. Further, the “self-cleavage kobs at 2500 uM GlcN6P” value in data set [5] is below 1e-05 s⁻¹.

On to AUAAAAGCGCCAGAACUACAGAAAUGUAGUUGACGAGGAGGAGGUUUAUCCAAUUUUCGGCGGAUCCCUCCAAA, for which the “self-cleavage kobs at 40 uM GlcN6P” value in data set [1] was below 1e-05 s⁻¹. In data set [3], the “self-cleavage kobs at 160 uM GlcN6P” value was below 1e-05 s⁻¹. For the same variant, the “self-cleavage kobs at 640 uM GlcN6P” value in data set [4] is below 1e-05 s⁻¹.

Turning to AUAAAAGCGCCAGAACUACAGAAAUGUAGUUGACGUGGAGGAAGUUUAUCGAAUUAUCGGCGGAUGCCUCCAAA, the “self-cleavage kobs at 40 uM GlcN6P” value in data set [1] was below 1e-05 s⁻¹. Further, the “self-cleavage kobs at 640 uM GlcN6P” value in data set [4] is below 1e-05 s⁻¹. Also, in data set [2], the “self-cleavage kobs at 10000 uM GlcN6P” value is below 1e-05 s⁻¹.

For AUAAAAGCGCCAGAACUACAGAAAUGUAGUUGAAGAGGAGGAGGGUUAUCGAAUUUUCGGCGGAUGCUUCAAAA, the “self-cleavage kobs at 40 uM GlcN6P” value in data set [1] was below 1e-05 s⁻¹. For the same variant, the “self-cleavage kobs at 160 uM GlcN6P” value in data set [3] is below 1e-05 s⁻¹. In data set [5], the “self-cleavage kobs at 2500 uM GlcN6P” value was below 1e-05 s⁻¹. The “self-cleavage kobs at 10000 uM GlcN6P” value in data set [2] is below 1e-05 s⁻¹.

On to AUAAAAGCGAGAGAACUACAGAAAUGUAGUUGACGAGGAGGAGGUUUAUCGAAUUUUCGUGGGAUGCCUCCAAA, for which the “self-cleavage kobs at 40 uM GlcN6P” value in data set [1] was below 1e-05 s⁻¹. For the same variant, the “self-cleavage kobs at 10000 uM GlcN6P” value in data set [2] was below 1e-05 s⁻¹.

For AUAAAAGCGCCAGAGCUACAGAAAUGUAGUUGACGAGGAGGAGGUUUAUCGAAUGUUCGGCGAAUGCCUCCAAA, the “self-cleavage kobs at 40 uM GlcN6P” value in data set [1] was below 1e-05 s⁻¹. In addition, in data set [2], the “self-cleavage kobs at 10000 uM GlcN6P” value is below 1e-05 s⁻¹.

As to AUAAAAGCGCCUGAACUACAGAAAUGUAGUUGACGAGGAGGAGGUUUAUCGAAUUUUCGGCGGAUGCCUCAAAA, in data set [1], the “self-cleavage kobs at 40 uM GlcN6P” value was 0.000512 ± 5.5e-05 s⁻¹. For the same variant, the “self-cleavage kobs at 160 uM GlcN6P” value in data set [3] was 0.0012 ± 0.00016 s⁻¹. Moreover, in data set [4], the “self-cleavage kobs at 640 uM GlcN6P” value is 0.00333 ± 0.00046 s⁻¹. In addition, the “self-cleavage kobs at 2500 uM GlcN6P” value in data set [5] came out at 0.0115 ± 0.0027 s⁻¹. Further, the “self-cleavage kobs at 10000 uM GlcN6P” value in data set [2] was determined as 0.0343 ± 0.0084 s⁻¹.

With AUAAAAGCGCCAGAACUACAGAAAUGUAAUUGACGGGGAGGAGGUUUAUCGAAUUUUCGGCGGAUGCCUCCAAA, the “self-cleavage kobs at 40 uM GlcN6P” value in data set [1] was below 1e-05 s⁻¹. Also, in data set [3], the “self-cleavage kobs at 160 uM GlcN6P” value is below 1e-05 s⁻¹. Further, in data set [4], the “self-cleavage kobs at 640 uM GlcN6P” value is below 1e-05 s⁻¹. In data set [5], the “self-cleavage kobs at 2500 uM GlcN6P” value is below 1e-05 s⁻¹.

AUAAAAGCGCCAGAACUACAGAAAUGUAGUUGACGAGGAGGAGGUUUGUCCAAUUUUCGGCGGAUGCCUCCAAA: the “self-cleavage kobs at 40 uM GlcN6P” value in data set [1] was below 1e-05 s⁻¹. The “self-cleavage kobs at 160 uM GlcN6P” value in data set [3] is below 1e-05 s⁻¹. Besides, the “self-cleavage kobs at 2500 uM GlcN6P” value in data set [5] is below 1e-05 s⁻¹. Besides, the “self-cleavage kobs at 10000 uM GlcN6P” value in data set [2] was below 1e-05 s⁻¹.

With AUAAAAGCGACAGUACUACAGAAAUGUAGUUGACGAGGAGGAGGUUUAUCGAAUUUUCGGCGGAUGCCUCCAAA, the “self-cleavage kobs at 40 uM GlcN6P” value in data set [1] is below 1e-05 s⁻¹. The “self-cleavage kobs at 640 uM GlcN6P” value in data set [4] was below 1e-05 s⁻¹.

With AUAAAAGCGCUAGAUCUACAGAAAUGUAGUUGACGAGGAGGAGGUUUAUCGAAUUUUCGGCGGAUGCCGCCAAA, in data set [1], the “self-cleavage kobs at 40 uM GlcN6P” value turned out to be 6.47e-05 ± 2.5e-05 s⁻¹.

Regarding AUAAAAGCGCCAGAACUACAGAAAUGUAGUUGAGGAGGAGGAGGUUUAUCGUAUAUUCGGCGGAUGCCUCCAAA, the “self-cleavage kobs at 40 uM GlcN6P” value in data set [1] was below 1e-05 s⁻¹. Moreover, the “self-cleavage kobs at 2500 uM GlcN6P” value in data set [5] is below 1e-05 s⁻¹. Moreover, in data set [2], the “self-cleavage kobs at 10000 uM GlcN6P” value was below 1e-05 s⁻¹.

On to AUAAAAGCGCCAGAACUACAGAAAUGUAGUUGACGAGGACGAGGUUUAUCGAAUUUUCGGCGGAUGCCGCCAAA, for which the “self-cleavage kobs at 40 uM GlcN6P” value in data set [1] is below 1e-05 s⁻¹. In data set [4], the “self-cleavage kobs at 640 uM GlcN6P” value is below 1e-05 s⁻¹. For the same variant, the “self-cleavage kobs at 10000 uM GlcN6P” value in data set [2] is below 1e-05 s⁻¹.

In the case of AUAAAAGCGCCAGAACUACAGAAAUGUAGUUGACGAGGAGGAGGUUUCUCGAAUUUUCAGCGGAUGCCUCCAAA, the “self-cleavage kobs at 40 uM GlcN6P” value in data set [1] was below 1e-05 s⁻¹. The “self-cleavage kobs at 160 uM GlcN6P” value in data set [3] was below 1e-05 s⁻¹. The “self-cleavage kobs at 640 uM GlcN6P” value in data set [4] is below 1e-05 s⁻¹. Moreover, in data set [5], the “self-cleavage kobs at 2500 uM GlcN6P” value was below 1e-05 s⁻¹. Also, the “self-cleavage kobs at 10000 uM GlcN6P” value in data set [2] is below 1e-05 s⁻¹.

Turning to AUAAAAGUGCCAGAACUACAGAAAUGUAGUUGCCGAGGAGGAGAUUUAUGGAAUUUUCGGCGGAUGCCUCCAAA, the “self-cleavage kobs at 40 uM GlcN6P” value in data set [1] is below 1e-05 s⁻¹. Moreover, the “self-cleavage kobs at 640 uM GlcN6P” value in data set [4] is below 1e-05 s⁻¹. Moreover, the “self-cleavage kobs at 2500 uM GlcN6P” value in data set [5] was below 1e-05 s⁻¹.

As to AUAAAAGCGCCGGGCCUACAGAAAUGUAGGUGACGAGGAGGAGGUUUAUCGAAUUUUCGGCGGAUGCCUCCAAA, the “self-cleavage kobs at 40 uM GlcN6P” value in data set [1] turned out to be 7.29e-05 ± 2e-05 s⁻¹. Besides, in data set [2], the “self-cleavage kobs at 10000 uM GlcN6P” value came out at 0.0042 ± 0.00087 s⁻¹.

On to AUAAAAGCGCCAGAACUACAGAAAUGUAGUUAACGAGGAGGAGGUUUAUGGAAUUGUCGGCGGAUGCCUUCAAA, for which the “self-cleavage kobs at 40 uM GlcN6P” value in data set [1] is 0.000356 ± 7.7e-05 s⁻¹. The “self-cleavage kobs at 10000 uM GlcN6P” value in data set [2] was determined as 0.00032 ± 7.2e-05 s⁻¹.

As for AUAAAAGCGCGAGAACUACAGAAAUGUAGUUGACGAGGAGGAGGUUUAUCGAAUUUUCAGCGGAUGCAUCCAAA, in data set [1], the “self-cleavage kobs at 40 uM GlcN6P” value was below 1e-05 s⁻¹. Further, the “self-cleavage kobs at 10000 uM GlcN6P” value in data set [2] is below 1e-05 s⁻¹.

For AUAAAAGCGCCAGAAGUACAGAAAUGUAGUCGACGACGAGGAGGUUUAUCGAGUUUUCGGCGGAUGCCUCCAAA, the “self-cleavage kobs at 40 uM GlcN6P” value in data set [1] is below 1e-05 s⁻¹.

In the case of AUAAAAGCGCCAGAACUACAGAAAUGUAGUUGACGAGGAGGAGGUUUAUCGGAUUUGCGGCGGAUGCCUCCAAA, in data set [1], the “self-cleavage kobs at 40 uM GlcN6P” value was determined as 5.61e-05 ± 1.6e-05 s⁻¹. Further, the “self-cleavage kobs at 160 uM GlcN6P” value in data set [3] is 0.000188 ± 6.1e-05 s⁻¹. The “self-cleavage kobs at 640 uM GlcN6P” value in data set [4] was found to be 0.000523 ± 0.00014 s⁻¹. Besides, the “self-cleavage kobs at 2500 uM GlcN6P” value in data set [5] was 0.00103 ± 0.00019 s⁻¹. Moreover, the “self-cleavage kobs at 10000 uM GlcN6P” value in data set [2] was 0.00397 ± 0.00056 s⁻¹.

With AUAAAAGCGCCAGAAGUACAGAAAUGUAGUUGACGAGGAGGAGUUUUAUCGAAUUUUCGGCGGAAGCCUCCAAA, the “self-cleavage kobs at 40 uM GlcN6P” value in data set [1] was below 1e-05 s⁻¹. Also, in data set [5], the “self-cleavage kobs at 2500 uM GlcN6P” value is below 1e-05 s⁻¹.

For the variant AUAAAAGCACCAGCACUACAGAAAUGUAGUUGACGAGGAGGAGGUUUAUCGAAUUUUCGGCGGAUGCCUCCAAA, the “self-cleavage kobs at 40 uM GlcN6P” value in data set [1] is below 1e-05 s⁻¹. Further, the “self-cleavage kobs at 160 uM GlcN6P” value in data set [3] is below 1e-05 s⁻¹. For the same variant, the “self-cleavage kobs at 2500 uM GlcN6P” value in data set [5] was below 1e-05 s⁻¹.

On to AUAAAAGCGCCAGAACUACAGAAAUGUAGUUGACGAGGAGGAAGUUUAUCGAAUUUUCGGCAGAUGCCUCCAAA, for which, in data set [1], the “self-cleavage kobs at 40 uM GlcN6P” value was below 1e-05 s⁻¹. Further, the “self-cleavage kobs at 160 uM GlcN6P” value in data set [3] is below 1e-05 s⁻¹. In addition, the “self-cleavage kobs at 2500 uM GlcN6P” value in data set [5] is below 1e-05 s⁻¹. The “self-cleavage kobs at 10000 uM GlcN6P” value in data set [2] was below 1e-05 s⁻¹.
